Results as given in the Immune Epitope Database (IEDB).

Experiments:
Details in all cases: source organism: Vibrio cholerae
HLA-C*07:02 = assay: IEDB peptide-MHC binding, purified MHC/direct/fluorescence; filed as Kd, often an IC50 or EC50 that approximates it; ≥ and ≤ were set here for values at or beyond the usual limits of such assays
HLA-B*08:01 = assay: IEDB peptide-MHC binding, purified MHC/competitive/fluorescence; filed as Kd, often an IC50 or EC50 that approximates it; ≥ and ≤ were set here for values at or beyond the usual limits of such assays
HLA-A*01:01 = assay: as above
HLA-A*66:01 = assay: as above
HLA-B*44:02 = assay: as above
HLA-B*51:01 = assay: as above
HLA-B*07:02 = assay: as above
HLA-B*53:01 = assay: as above
HLA-B*18:01 = assay: as above
HLA-B*57:01 = assay: as above
HLA-B*15:01 = assay: as above
HLA-A*29:02 = assay: as above
HLA-A*68:02 = assay: as above
HLA-A*02:01 = assay: as above
HLA-A*24:03 = assay: as above
HLA-A*02:19 = assay: as above
HLA-B*27:05 = assay: as above
HLA-A*23:01 = assay: as above
HLA-A*03:01 = assay: as above
HLA-A*30:02 = assay: as above
HLA-B*58:01 = assay: as above
HLA-A*02:12 = assay: as above
HLA-B*46:01 = assay: as above
HLA-B*14:02 = assay: as above
HLA-B*15:17 = assay: as above
HLA-A*02:03 = assay: as above
HLA-A*11:01 = assay: as above
HLA-A*26:01 = assay: as above
HLA-B*40:01 = assay: as above

TRAPAPFPL
Kd (HLA-C*07:02): 0.045 µM | Kd (HLA-B*08:01): ≥ 5 µM | Kd (HLA-A*01:01): ≥ 5 µM | Kd (HLA-A*66:01): ≥ 5 µM | Kd (HLA-B*44:02): ≥ 5 µM | Kd (HLA-B*51:01): ≥ 20 µM | Kd (HLA-B*07:02): ≥ 5 µM | Kd (HLA-B*53:01): ≥ 5 µM | Kd (HLA-B*18:01): ≥ 20 µM | Kd (HLA-B*57:01): ≥ 20 µM | Kd (HLA-B*15:01): ≥ 20 µM | Kd (HLA-A*29:02): ≥ 20 µM | Kd (HLA-A*68:02): 0.13 µM | Kd (HLA-A*02:01): ≥ 20 µM | Kd (HLA-A*24:03): ≥ 20 µM | Kd (HLA-A*02:19): ≥ 20 µM | Kd (HLA-B*27:05): 0.0123 µM | Kd (HLA-A*23:01): 3.5 µM | Kd (HLA-A*03:01): ≥ 20 µM | Kd (HLA-A*30:02): ≥ 5 µM | Kd (HLA-B*58:01): ≥ 5 µM | Kd (HLA-A*02:12): ≥ 20 µM | Kd (HLA-B*46:01): ≥ 20 µM | Kd (HLA-B*14:02): 0.565 µM | Kd (HLA-B*15:17): ≥ 20 µM | Kd (HLA-A*02:03): ≥ 20 µM | Kd (HLA-A*11:01): ≥ 5 µM | Kd (HLA-A*26:01): ≥ 20 µM | Kd (HLA-B*40:01): ≥ 5 µM
